Measured values from patent publication US20120316071A1 (published 2012).
Changes are numbered by the printed parent chain. Numbers in names are those of the source.

T1: rHuman Erythropoietin R/Fc Chimera, CF (R&D Systems Cat#963-ER) (human, UniProt P19235 25-250)
T1 construct: Bought recombinant Fc chimera; also called EPO R; EPO R/Fc; Fc part of the bought chimera not given
T1 sequence (looked up): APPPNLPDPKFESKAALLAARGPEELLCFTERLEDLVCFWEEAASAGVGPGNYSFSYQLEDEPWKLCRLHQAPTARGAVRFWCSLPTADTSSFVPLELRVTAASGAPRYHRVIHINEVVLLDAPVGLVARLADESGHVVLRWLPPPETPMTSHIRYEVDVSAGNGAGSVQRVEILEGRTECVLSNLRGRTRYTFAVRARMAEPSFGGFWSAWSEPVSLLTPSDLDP

B1: Fab VH1-46_IGHD6-6*01_IGHJ1*01 S102A/S103P/S104F/H111F S54T & L6_IGKJ1*01 (Fab, V domains shown)
VH: QVQLVQSGAEVKKPGASVKVSCKASGYTFTSYYMHWVRQAPGQGLEWMGIINPTGGSTSYAQKFQGRVTMTRDTSTSTVYMELSSLRSEDTAVYYCAREEYAPFSAEYFQFWGQGTLVTVSS
VL: not shown
notes: Fab made in E. coli; CH1 with tags and kappa CL are not included; also called APFF S54T
B2: Fab VH1-46_IGHD6-6*01_IGHJ1*01 S102A/S103P/S104F/H111F S54E & L6_IGKJ1*01 (Fab, V domains shown)
VH: B1 VH with T54E
VL: not shown
notes: Fab made in E. coli; CH1 with tags and kappa CL are not included; also called APFF S54E
B3: Fab VH1-46_IGHD6-6*01_IGHJ1*01 S102A/S103P/S104F/H111F S54V & L6_IGKJ1*01 (Fab, V domains shown)
VH: B1 VH with T54V
VL: not shown
notes: Fab made in E. coli; CH1 with tags and kappa CL are not included; also called APFF S54V
B4: Fab VH1-46_IGHD6-6*01_IGHJ1*01 S102A/S103P/S104F/H111F S54R & L6_IGKJ1*01 (Fab, V domains shown)
VH: B1 VH with T54R
VL: not shown
notes: Fab made in E. coli; CH1 with tags and kappa CL are not included; also called APFF S54R
B5: Fab VH1-46_IGHD6-6*01_IGHJ1*01 S102A/S103P/S104F/H111F S54N & L6_IGKJ1*01 (Fab, V domains shown)
VH: B1 VH with T54N
VL: not shown
notes: Fab made in E. coli; CH1 with tags and kappa CL are not included; also called APFF S54N
B6: Fab VH1-46_IGHD6-6*01_IGHJ1*01 S102A/S103P/S104F/H111F S54Q & L6_IGKJ1*01 (Fab, V domains shown)
VH: B1 VH with T54Q
VL: not shown
notes: Fab made in E. coli; also called APFF S54Q
B7: Fab VH1-46_IGHD6-6*01_IGHJ1*01 S102A/S103P/S104F/H111F S54P & L6_IGKJ1*01 (Fab, V domains shown)
VH: B1 VH with T54P
VL: not shown
notes: Fab made in E. coli; CH1 with tags and kappa CL are not included; also called APFF S54P
B8: Fab VH1-46_IGHD6-6*01_IGHJ1*01 S102A/S103P/S104F/H111F S54A/S59N & L6_IGKJ1*01 (Fab, V domains shown)
VH: B1 VH with T54A, S59N
VL: not shown
notes: Fab made in E. coli; CH1 with tags and kappa CL are not included; also called APFF S54A/S59N
B9: Fab VH1-46_IGHD6-6*01_IGHJ1*01 S102A/S103P/S104F/H111F S54G & L6_IGKJ1*01 (Fab, V domains shown)
VH: B1 VH with T54G
VL: not shown
notes: Fab made in E. coli; CH1 with tags and kappa CL are not included; also called APFF S54G
B10: Fab VH1-46_IGHD6-6*01_IGHJ1*01 S102A/S103P/S104F/H111F S54L & L6_IGKJ1*01 (Fab, V domains shown)
VH: B1 VH with T54L
VL: not shown
notes: Fab made in E. coli; CH1 with tags and kappa CL are not included; also called APFF S54L
B11: Fab VH1-46_IGHD6-6*01_IGHJ1*01 S102A/S103P/S104F/H111F S57A & L6_IGKJ1*01 (Fab, V domains shown)
VH: B1 VH with T54S, S57A
VL: not shown
notes: Fab made in E. coli: CH1 with His6/Flag tags from Plasmid A, kappa constant region from Plasmid C; also called APFF S57A
B12: Fab VH1-46_IGHD6-6*01_IGHJ1*01 S102A/S103P/S104F/H111F S59A & L6_IGKJ1*01 (Fab, V domains shown)
VH: B1 VH with T54S, S59A
VL: not shown
notes: Fab made in E. coli: CH1 with His6/Flag tags from Plasmid A, kappa constant region from Plasmid C; also called APFF S59A
B13: Fab VH1-46_IGHD6-6*01_IGHJ1*01 S102A/S103P/S104F/H111F T58A & L6_IGKJ1*01 (Fab, V domains shown)
VH: B1 VH with T54S, T58A
VL: not shown
notes: Fab made in E. coli: CH1 with His6/Flag tags from Plasmid A, kappa constant region from Plasmid C; also called APFF T58A
B14: Fab VH1-46_IGHD6-6*01_IGHJ1*01 S102A/S103P/S104F/H111F (APFF) & L6_IGKJ1*01 S28N (Fab, V domains shown)
VH: B1 VH with T54S
VL: EIVLTQSPATLSLSPGERATLSCRASQNVSSYLAWYQQKPGQAPRLLIYDASNRATGIPARFSGSGSGTDFTLTISSLEPEDFAVYYCQQRSNWPPWTFGQGTKVEIKR
notes: Fab; VH cloned into Plasmid A (CH1, His6 and Flag tags) and VL into Plasmid C (kappa CL); also called APFF / S28N
B15: Fab VH1-46_IGHD6-6*01_IGHJ1*01 S102A/S103P/S104F/H111F (APFF) & L6_IGKJ1*01 S28M (Fab, V domains shown)
VH: B1 VH with T54S
VL: B14 VL with N28M
notes: Fab; VH cloned into Plasmid A (CH1, His6 and Flag tags) and VL into Plasmid C (kappa CL); also called APFF / S28M
B16: Fab VH1-46_IGHD6-6*01_IGHJ1*01 S102A/S103P/S104F/H111F (APFF) & L6_IGKJ1*01 S28E (Fab, V domains shown)
VH: B1 VH with T54S
VL: B14 VL with N28E
notes: Fab; VH cloned into Plasmid A (CH1, His6 and Flag tags) and VL into Plasmid C (kappa CL); also called APFF / S28E
B17: Fab VH1-46_IGHD6-6*01_IGHJ1*01 S102A/S103P/S104F/H111F (APFF) & L6_IGKJ1*01 S28H (Fab, V domains shown)
VH: B1 VH with T54S
VL: B14 VL with N28H
notes: Fab; VH cloned into Plasmid A (CH1, His6 and Flag tags) and VL into Plasmid C (kappa CL); also called APFF / S28H
B18: Fab VH1-46_IGHD6-6*01_IGHJ1*01 S102A/S103P/S104F/H111F (APFF) & L6_IGKJ1*01 S28W (Fab, V domains shown)
VH: B1 VH with T54S
VL: B14 VL with N28W
notes: Fab; VH cloned into Plasmid A (CH1, His6 and Flag tags) and VL into Plasmid C (kappa CL); also called APFF / S28W
B19: Fab VH1-46_IGHD6-6*01_IGHJ1*01 S102A/S103P/S104F/H111F (APFF) & L6_IGKJ1*01 S30C (Fab, V domains shown)
VH: B1 VH with T54S
VL: B14 VL with N28S, S30C
notes: Fab; VH cloned into Plasmid A (CH1, His6 and Flag tags) and VL into Plasmid C (kappa CL); also called APFF / S30C
B20: Fab VH1-46_IGHD6-6*01_IGHJ1*01 S102A/S103P/S104F/H111F (APFF) & L6_IGKJ1*01 S30D (Fab, V domains shown)
VH: B1 VH with T54S
VL: B14 VL with N28S, S30D
notes: Fab; VH cloned into Plasmid A (CH1, His6 and Flag tags) and VL into Plasmid C (kappa CL); also called APFF / S30D
B21: Fab VH1-46_IGHD6-6*01_IGHJ1*01 S102A/S103P/S104F/H111F (APFF) & L6_IGKJ1*01 S30L (Fab, V domains shown)
VH: B1 VH with T54S
VL: B14 VL with N28S, S30L
notes: Fab; VH cloned into Plasmid A (CH1, His6 and Flag tags) and VL into Plasmid C (kappa CL); also called APFF / S30L
B22: Fab VH1-46_IGHD6-6*01_IGHJ1*01 S102A/S103P/S104F/H111F (APFF) & L6_IGKJ1*01 S28R (Fab, V domains shown)
VH: B1 VH with T54S
VL: B14 VL with N28R
notes: Fab; VH cloned into Plasmid A (CH1, His6 and Flag tags) and VL into Plasmid C (kappa CL); also called APFF / S28R
B23: Fab VH1-46_IGHD6-6*01_IGHJ1*01 S102A/S103P/S104F/H111F (APFF) & L6_IGKJ1*01 S28I (Fab, V domains shown)
VH: B1 VH with T54S
VL: B14 VL with N28I
notes: Fab; VH cloned into Plasmid A (CH1, His6 and Flag tags) and VL into Plasmid C (kappa CL); also called APFF / S28I

target: T2, Recombinant Human DLL4 (delta-like protein 4) (human, UniProt Q9NR61 27-529); assay: 96-well plate ECL (MSD) binding assay on coated DLL4, 10 nM Fab
T2 construct: Bought recombinant human DLL4 (R&D Systems Cat#1506-D4/CF), coated on the plate; also called rHuman DLL4; Delta-like 4

ECL signal	Binder
57200	B1
36800	B2
22200	B3
26300	B4
31700	B5
41800	B6
10100	B7
17300	B8
47000	B9
28200	B10

target: T3, Recombinant Human DLL4 (delta-like protein 4) (human, UniProt Q9NR61 27-524); assay: ECL (MSD) multispot binding assay, DLL4 immobilised, 10 nM Fab, DLL4 signal over blank
T3 construct: Bought recombinant protein (R&D Systems Cat#1506-D4/CF); also called rHuman DLL4; Delta-like 4

Signal/Noise [10 nM Fab]	Binder
293	B11
17.1	B12
142	B13

target: T4, rHuman CD44/Fc Chimera, CF (R&D Systems Cat#3660-CD) (human, UniProt P16070 21-220); assay: ECL multispot (MSD), antigen spotted, Fab in solution;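 note: purified Fab incubated 1 h at 20 °C on antigen-spotted wells, bound Fab detected via TAG detection antibody, ECL compared with each well's blank, ratio of 4 or above scored as hit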
T4 construct: Bought recombinant Fc chimera; Fc part of the bought chimera not given

ECL signal	Binder
399	B14
313	B15
461	B16
513	B17
404	B18
1080	B19
434	B20
295	B21
378	B22
412	B23

target: T1, rHuman Erythropoietin R/Fc Chimera, CF …; assay: as above

ECL signal	Binder
440	B14
360	B15
513	B16
517	B17
489	B18
1790	B19
496	B20
540	B21
542	B22
450	B23

target: T5, rHuman ErbB2/Fc Chimera, CF (R&D Systems Cat#1129-ER) (human, UniProt P04626 23-652); assay: as above
T5 construct: Bought recombinant Fc chimera; also called human epidermal growth factor 2 receptor; Fc part of the bought chimera not given

ECL signal	Binder
363	B14
271	B15
389	B16
381	B17
316	B18
1010	B19
284	B20
270	B21
318	B22
265	B23

target: T6, rHuman Notch-1/Fc Chimera, CF (R&D Systems Cat#3647-TK) (human, UniProt P46531 19-526); assay: as above
T6 construct: Bought recombinant Fc chimera; Fc part of the bought chimera not given

ECL signal	Binder
243	B14
382	B15
433	B16
482	B17
349	B18
1470	B19
415	B20
389	B21
425	B22
442	B23

target: T7, rHuman HGF R/c-MET/Fc Chimera, CF (R&D Systems Cat#358-MT/CF) (human, UniProt P08581 25-932); assay: as above
T7 construct: Bought recombinant Fc chimera; also called HGF R/Fc; hepatocyte growth factor receptor; Fc part of the bought chimera not given
T7 sequence (P08581 25-932, change not shown): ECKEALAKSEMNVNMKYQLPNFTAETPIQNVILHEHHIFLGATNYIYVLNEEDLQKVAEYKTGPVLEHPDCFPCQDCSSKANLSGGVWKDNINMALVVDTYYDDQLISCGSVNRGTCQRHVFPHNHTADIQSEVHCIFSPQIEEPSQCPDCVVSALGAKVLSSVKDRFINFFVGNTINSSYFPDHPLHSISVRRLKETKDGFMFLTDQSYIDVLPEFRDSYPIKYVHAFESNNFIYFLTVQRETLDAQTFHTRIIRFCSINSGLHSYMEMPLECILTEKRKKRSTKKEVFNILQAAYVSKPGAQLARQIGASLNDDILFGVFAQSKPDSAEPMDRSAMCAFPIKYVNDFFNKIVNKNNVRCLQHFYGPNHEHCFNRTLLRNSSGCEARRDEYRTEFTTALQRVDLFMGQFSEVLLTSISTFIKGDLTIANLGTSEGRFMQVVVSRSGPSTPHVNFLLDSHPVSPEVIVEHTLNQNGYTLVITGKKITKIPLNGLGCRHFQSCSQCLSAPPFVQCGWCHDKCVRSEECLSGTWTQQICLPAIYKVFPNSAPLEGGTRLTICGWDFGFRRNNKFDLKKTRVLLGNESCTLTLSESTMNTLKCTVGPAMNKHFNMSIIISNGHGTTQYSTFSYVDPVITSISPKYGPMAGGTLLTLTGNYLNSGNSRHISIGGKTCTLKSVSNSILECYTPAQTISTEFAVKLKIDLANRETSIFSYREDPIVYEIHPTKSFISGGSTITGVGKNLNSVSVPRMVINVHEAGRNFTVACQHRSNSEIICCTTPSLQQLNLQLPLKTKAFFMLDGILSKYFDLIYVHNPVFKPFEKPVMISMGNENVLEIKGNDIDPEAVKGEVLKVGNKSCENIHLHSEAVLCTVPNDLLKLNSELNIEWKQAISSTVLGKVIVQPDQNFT

ECL signal	Binder
406	B14
305	B15
401	B16
346	B17
414	B18
1230	B19
312	B20
315	B21
378	B22
369	B23

target: T8, rHuman IGF-1 sR, (IGF-1 sR), CF (R&D Systems Cat#391-GR) (human, UniProt P08069 31-932); assay: as above
T8 construct: Bought recombinant soluble receptor; The column head prints only 'IGF-1'; also called insulin-like growth factor-1 soluble receptor

ECL signal	Binder
331	B14
341	B15
361	B16
355	B17
489	B18
1030	B19
357	B20
332	B21
437	B22
353	B23

target: T9, rHuman EGF R/Fc Chimera, CF (R&D Systems Cat#344-ER) (human, UniProt P00533 25-645); assay: as above
T9 construct: Bought recombinant Fc chimera; also called epidermal growth factor receptor; Fc part of the bought chimera not given

ECL signal	Binder
325	B14
320	B15
396	B16
435	B17
283	B18
1190	B19
325	B20
406	B21
403	B22
386	B23

target: T10, rHuman P-Cadherin/Fc Chimera, CF (R&D Systems Cat#861-PC) (human, UniProt P22223 108-654); assay: as above
T10 construct: Bought recombinant Fc chimera; Fc part of the bought chimera not given

ECL signal	Binder
447	B14
410	B15
393	B16
447	B17
385	B18
1690	B19
543	B20
351	B21
395	B22
416	B23

target: T2, Recombinant Human DLL4 (delta-like …); assay: ELISA on coated DLL4, 100 nM Fab

ELISA signal	Binder
0.08	B1
0.04	B2
0	B3
0.02	B4
0.02	B5
0.07	B6
0	B7
0.1	B8
0.06	B9
0.02	B10

target: T3, Recombinant Human DLL4 (delta-like …); assay: ELISA on plate-coated DLL4, 100 nM Fab, signal minus noise

ELISA (Signal-Noise)	Binder
0.39	B11
0.02	B12
0.14	B13
